Biological target: T1, pE3-Aβ(3–18) monomer
T1 chain: EFRHDSGYEVHHQKLV
Assay: SPR (Biacore)
Conditions: chain shown with the change

Kd: 162 nM
B1: humanized PBD-C06 (CDR-grafted IgG1:kappa version) VL:F41L (protein)
chain 1: QVQLVQSGAEVKKSGASVKVSCKASGYSFTGYTMNWVRQAPGQGLEWMGLINPYNGVTRYNQKFKGRVTLIRDTSTTTVYMELTSLTSEDTAVYYCAREAKREWDETYWGQGTLVTVSS
chain 2: DVVMTQSPLSLPVTLGQPASISCKSSQSLLYSDGKTYLNWLQQRPGQSPRRLIYLVSKLDSGVPDRFSGSGSGTDFTLKISRVEAEDVGVYYCVQGTHFPFTFGGGTKVEIK
